Results from paper PMC13423832.

Target: COX4I1
Experiment: AP-MS (FLAG affinity purification, protein intensity)
Settings: HEK293T transiently overexpressing FLAG-tagged COX5A; n = 3 biological replicates, mean ± SD; parent: est. 1.1e10; read off a plot

response	Substance
2.5e+10 intensity	COX5A-FLAG, wild type (from UniProt P20674) D81W
5e+09 intensity	COX5A-FLAG, wild type (from UniProt P20674) Y80W
6e+09 intensity	COX5A-FLAG, wild type (from UniProt P20674) T79G
